# In US20210347899A1 (BRIGHAM AND WOMEN S HOSPITAL, published 2021):
# T1: human KLRG1 ECD (human, UniProt Q96E93 60-186, biotinylated in the OCTET assay, site not stated)
# T1 construct: Recombinant proteins were made as FC fusion or as HIS tagged versions; also called Human-KLRG-ECD
# T1 sequence: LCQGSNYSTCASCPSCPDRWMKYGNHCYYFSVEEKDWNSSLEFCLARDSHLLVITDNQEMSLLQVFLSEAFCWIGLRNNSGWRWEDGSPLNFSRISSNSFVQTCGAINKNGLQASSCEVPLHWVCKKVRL
# T2: cynomolgus KLRG1 ECD (cynomolgus, biotinylated in the OCTET assay, site not stated)
# T2 construct: Recombinant proteins were made as FC fusion or as HIS tagged versions; also called cynonolgus KLRG1 ECD
# T2 chain: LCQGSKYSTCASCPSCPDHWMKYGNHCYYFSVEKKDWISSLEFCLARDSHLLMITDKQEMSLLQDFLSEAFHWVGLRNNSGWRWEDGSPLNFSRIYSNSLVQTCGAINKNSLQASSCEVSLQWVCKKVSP
# T3: full length human KLRG1 (human, UniProt Q96E93 1-195)
# T3 sequence (looked up): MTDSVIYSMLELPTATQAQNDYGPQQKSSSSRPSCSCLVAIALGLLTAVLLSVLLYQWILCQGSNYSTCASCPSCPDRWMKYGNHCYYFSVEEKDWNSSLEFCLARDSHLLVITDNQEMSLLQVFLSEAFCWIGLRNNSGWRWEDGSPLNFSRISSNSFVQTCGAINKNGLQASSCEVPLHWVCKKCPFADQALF
# T4: full length cynomolgus KLRG1 (cynomolgus, UniProt A0A2K5WAP9 1-186)
# T4 construct: whole, on cells; also called Cyno KLRG1; CHO-cynomolgus-KLRG1
# T4 sequence: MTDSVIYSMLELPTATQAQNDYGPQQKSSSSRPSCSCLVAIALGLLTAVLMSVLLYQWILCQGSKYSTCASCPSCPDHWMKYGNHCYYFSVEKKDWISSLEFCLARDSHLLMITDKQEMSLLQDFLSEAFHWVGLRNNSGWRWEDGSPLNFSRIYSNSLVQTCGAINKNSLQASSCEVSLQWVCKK
# Assays:
# human KLRG1 ECD = molecular target: T1, human KLRG1 ECD; assay: BLI (OCTET), biotinylated antigen on streptavidin sensor, 1:1 fit
# Method: (§1) Binding kinetics of humanized antibodies for human and cynomolgus KLRG1 were determined by OCTET® measurement. OCTET® Systems use Bio-Layer Interferometry (BLI) technology to monitor the binding of proteins and other biomolecules to their partners directly in real time, providing analysis of kinetic binding constants. See https.//www.fortebio.com/bli-technology.html, the contents of which, including all links and sublinks associated therewith, is incorporated by reference herein in its entirety. The experimental set-up consists of immobilizing biotinylated recombinant antigen (Human-KLRG-ECD or cynomolgus-KLRG1-ECD) on streptavidin OCTET® sensor to produce antigen loaded sensors. The loaded sensors are the exposed to varying concentrations of each humanized antibody from 100 to 0.1 nM in the OCTET® instruments and data collected for 600 seconds to measure association kinetic (Kₒₙ) of the antibody/antigen complex. […] Kinetic binding parameters derived by this method are summarized in Table 9 for the three humanized antibodies.
# cynomolgus KLRG1 ECD [1] = molecular target: T2, cynomolgus KLRG1 ECD; assay: as above
# Method: as §1
# full length human KLRG1 [2] = molecular target: T3, full length human KLRG1; assay: cell-based or functional assay
# full length human KLRG1 [3] = molecular target: T3, full length human KLRG1; assay: cell-based or functional assay; remark: listed apart in the source
# full length human KLRG1 [4] = molecular target: T3, full length human KLRG1; assay: FACS on CHO-human-KLRG1 cells
# Method: (§2) Binding of anti-KLRG1 monoclonal antibodies to cell expressed human and cynomolgus-KLRG1 was carried out by FACS. Chinese hamster ovary (CHO) cells were stably transfected to express full length human KLRG1 (CHO-human-KLRG1) and cynomolgus KLRG1 (CHO-cynomolgus-KLRG1).
# [5] = molecular target: T4, full length cynomolgus KLRG1; assay: FACS on CHO-cynomolgus-KLRG1 cells
# Method: as §2
# cynomolgus KLRG1 ECD [6] = molecular target: T2, cynomolgus KLRG1 ECD; assay: hybridoma screen for binding to KLRG1 ECD
# full length human KLRG1 [7] = molecular target: T3, full length human KLRG1; assay: FACS competition, loss of HIS tagged E-cadherin binding to CHO-hKLRG1 cells
# Method: (§3) The ability of monoclonal antibodies to inhibit E-cadherin/KLRG1 binding was measured by FACS. Binding of E-cadherin to CHO-hKLRG1 cells was first determined by incubating the KLRG1 expressing cells with varying concentration of HIS tagged recombinant E-cadherin and detected by FACS with anti-HIS detection antibody.
# full length human KLRG1 [8] = molecular target: T3, full length human KLRG1; assay: E-cadherin binding inhibition study, FACS on CHO-hKLRG1 cells; labels of Table 12 stand one row too low, value agrees with ABC_G1N07 in Table 8
# Method: as §3
# (§4) IC50 values for each antibody were derived from E-cadherin binding inhibition studies and plotted against IFNγ production levels measured in CD8+ T cells IFNγ release assays.
# full length human KLRG1 [9] = molecular target: T3, full length human KLRG1; assay: E-cadherin binding inhibition study, FACS on CHO-hKLRG1 cells; labels of Table 12 stand one row too low, value agrees with ABC_G1N02 (5.03) in Table 8
# Method: as §3, §4
# full length human KLRG1 [10] = molecular target: T3, full length human KLRG1; assay: FACS, HIS tagged E-cadherin on CHO-hKLRG1 cells, anti-HIS detection
# Method: as §3
Binder,Kd (human KLRG1 ECD) [nM],koff (human KLRG1 ECD) [s⁻¹],kon (human KLRG1 ECD) [M⁻¹ s⁻¹],Kd (cynomolgus KLRG1 ECD [1]) [nM],koff (cynomolgus KLRG1 ECD [1]) [s⁻¹],kon (cynomolgus KLRG1 ECD [1]) [M⁻¹ s⁻¹],"IFNγ released (pg/ml), Sample 1 (full length human KLRG1 [2]) [pg/mL]","IFNγ released (pg/ml), Sample 2 (full length human KLRG1 [2]) [pg/mL]",IFNγ (full length human KLRG1 [3]) [pg/mL],EC50 (full length human KLRG1 [4]) [nM],EC50 [5] [nM],binding result (cynomolgus KLRG1 ECD [6]),IC50 (full length human KLRG1 [7]) [nM],IC50 (full length human KLRG1 [8]) [nM],IC50 (full length human KLRG1 [9]) [nM],EC50 (full length human KLRG1 [10]) [nM]
"ABC_HG1N01 (antibody, IgG1, V domains shown) VH: QVILKESGPGLVKPTQTLTLTCTFSGFSLTTFGMGIGWIRQPPGKALEWLAHIWWNDDKSYNSALKSRLTISKDTSKNQVVLTMTNMDPVDTATYYCARTIYYGNYLTFYAMEHWGQGTTVTVSS VL: DILMTQSPLSLPVTPGEPASISCRSSQNIVHSNGNTYLEWYLQKPGQSPRLLIYKVSNRFSGVPDRFSGSGSGTDFTLKISRVEAEDVGVYYCFQGSHVPPTFGAGTKLELKR",0.125,0.000287,2.29e+06,0.0617,4.1e-05,664000,–,–,–,–,–,–,–,–,–,–
"ABC_HG1N02 (antibody, IgG1, V domains shown) VH: QVTLKESGPGLVKPTQTLTLTCTFSGFSLSTFGMGVGWIRQPPGKALEWLAHIWWDDDKWYELALKSRLTISKDSSKNQVVLTMTNMDPVDTATYYCARVIYYGSRSAYYSMDYWGPGTTVTVSS VL: DILMTQSPLSLPVTPGEPASISCKSSQSIVHSNGHTYLEWYLQKPGQSPRLLIYKVSNRFSGVPDRFSGSGSGTDFTLKISRVEAEDVGVYYCFQGSHVPVTFGAGTKLELKR",0.243,0.000681,2.8e+06,0.0647,4.07e-05,630000,–,–,–,–,–,–,–,–,–,–
"ABC_HG1N07 (antibody, IgG1, V domains shown) VH: QVQLVESGGGLVKPGGSLRLSCAASGFTFRNYAMSWIRQTPGKGLEWVATISESGNYNNYPDNVKGRLTISRDNAKNSLYLQMNSLKAEDTAVYYCVRDDWEGRAMDYWGQGTTVTVSS VL: DIQMTQSPSSLSASVGDRVTITCRASRDIGSSLNWYQQKPGGAPKRLIYATSSLDSGVPKRFSGSGSGTDFTLTISSLQSEDFATYYCLQYASSPWTFGQGTKVEIKR",< 0.0051,< 1e-05,1.97e+06,1.42,0.00125,880000,–,–,–,–,–,–,–,–,–,–
"ABC_G1N07 (antibody, V domains shown, Mouse hybridoma monoclonal antibody) VH: EVQLVESGGGLVKPGGSLKLSCTASGFTFRNYAMSWVRQTPEKRLEWVATISESGNYNNYPDNVKGRLTISRDNAKNNLYLQMSLLKSEDTAMYYCVRDDWEGRAMDYWGQGTSVTVSS VL: GIQMTQSPSSLSASLGERVSLTCRASRDIGSSLNWLQQKPDGTIKRLIYATSSLDSGVPKRFSGSRSGTDYSLTISSLESEDFVDYFCLQYASSPWTFGGGTKLEIK",–,–,–,–,–,–,1580,1390,1480,0.94,0.98,binds,9.6,9.6,–,–
"ABC_G1N02 (antibody, V domains shown, Mouse hybridoma monoclonal antibody) VH: QVTLKESGPGILQPSQTLSLTCSVSGFSLSTFGMGVGWIRQPSGKGLEWLAHIWWDDDKWYELALKSRLTISKDSSKNQVFLKIANVDTADTATYFCARVIYYGSRSAYYSMDYWGPGTSVTVSS VL: DVLMTQTPLSLPVSLGAQASISCKSSQSIVHSNGHTYLEWYLQKPGQSPKILIYKVSNRFSGVPDRFSGSGSGTDFTLKISRVEAEDLGVYYCFQGSHVPVTFGAGTKLELK",–,–,–,–,–,–,1440,1290,1370,1.01,2.02,binds,5.03,–,5,–
"HIS tagged recombinant E-cadherin (ligand, also called human E-cadherin; not shown: HIS tag) DWVIPPISCPENEKGPFPKNLVQIKSNKDKEGKVFYSITGQGADTPPVGVFIIERETGWLKVTEPLDRERIATYTLFSHAVSSNGNAVEDPMEILITVTDQNDNKPEFTQEVFKGSVMEGALPGTSVMEVTATDADDDVNTYNAAIAYTILSQDPELPDKNMFTINRNTGVISVVTTGLDRESFPTYTLVVQAADLQGEGLSTTATAVITVTDTNDNPPIFNPTTYKGQVPENEANVVITTLKVTDADAPNTPAWEAVYTILNDDGGQFVVTTNPVNNDGILKTAKGLDFEAKQQYILHVAVTNVVPFEVSLTTSTATVTVDVLDVNEAPIFVPPEKRVEVSEDFGVGQEITSYTAQEPDTFMEQKITYRIWRDTANWLEINPDTGAISTRAELDREDFEHVKNSTYTALIIATDNGSPVATGTGTLLLILSDVNDNAPIPEPRTIFFCERNPKPQVINIIDADLPPNTSPFTAELTHGASANWTIQYNDPTQESIILKPKMALEVGDYKINLKLMDNQNKDQVTTLEVSVCDCEGAAGVCRKAQPVEAGLQIPA",–,–,–,–,–,–,–,–,–,–,–,–,–,–,–,1000
"ABC_G1N03 (antibody, V domains shown, Mouse hybridoma monoclonal antibody) VH: QVHLQQSGPELVKPGASVKLSCKASGDTFTTYDITWVKQRPGQGLEWIGWIYPKDGRTQNSEKFKDKATLTVDTSSTTAYMELHSLTSEDSAVYFCARRGQFGPYFDHWGQGSTLTVSS VL: VIQMTQSSSFLSASLGGRVSITCRASDHIYNWLAWYQQKPGNAPRLLISGATSLETGIPSRFSGGGSGKDYTLTIISLQTEDIASYYCQQYWNTPPTFGGGTKVEIK",–,–,–,–,–,–,934,869,–,1.3,1.06,binds,–,–,–,–
"ABC_G1N04 (antibody, V domains shown, Mouse hybridoma monoclonal antibody) VH: DVQLVESGGGLVQPGGSRKLSCAASGFSFSTFGMHWVRQVPEKGLEWVAYISSGSYSIFYADSVKGRFTISRDNPKNTLFLQMTSLRSEDTAIYYCTRTRDSGSSPHYFDYWGQGTTVTVSS VL: not shown",–,–,–,–,–,–,987,1000,–,29,0.47,binds,–,–,–,–
"ABC_G1N01 (antibody, V domains shown, Mouse hybridoma monoclonal antibody) VH: QVILKESGPGILQPSQTLSLTCSFSGFSLTTFGMGIGWIRHPSGKALEWLAHIWWNDDKSYNSALKSRLTISKDTSKNQVFLRLANVATADTATYYCARTIYYGNYLTFYAMEHWGQGTSVTVSS VL: DVLLTQTPLSLPVSLGDQASISCRSSQNIVHSNGNTYLEWYLLKPGQSPKLLIFKVSNRFSGVPDKFSGSGSGTDFTLKIRRVEAEDLGIYYCFQGSHVPPTFGAGTKLELK",–,–,–,–,–,–,1190,1220,1200,1.21,1.45,binds,12.2,–,–,–
"ABC_G1N06 (antibody, V domains shown, Mouse hybridoma monoclonal antibody) VH: QVQLKQSGPGLVQPSQSLSITCTVSGFSLTTHAVHWVRQSPGKGLDWLGVIWSGGNTDYNAAFISRLTISKDNSKSQVFFKMNSLQADDTAIYYCVRLLLPAMDYWGQGTSVTVSS VL: QIVLTQSPAIMSASLGERVTMTCTATSSVSSTYLHWYRQKPGSSPKLWIYSTSTLASGVPVRFRGSGSGTSYSLTISSMEAEDAATYYCHQYRRSPYTFGGGTKLEIK",–,–,–,–,–,–,1020,1140,–,1.43,1.5,binds,41,–,–,–
